Test results as given in PMC4827770 (Journal of molecular recognition : JMR, 2008).
Like-named read-outs stand apart in the source and are kept apart here.

T1: murine JAM-A on L929 (L) cells (murine (endogenous in L929 cells), UniProt O88792 27-300)
T1 sequence (looked up): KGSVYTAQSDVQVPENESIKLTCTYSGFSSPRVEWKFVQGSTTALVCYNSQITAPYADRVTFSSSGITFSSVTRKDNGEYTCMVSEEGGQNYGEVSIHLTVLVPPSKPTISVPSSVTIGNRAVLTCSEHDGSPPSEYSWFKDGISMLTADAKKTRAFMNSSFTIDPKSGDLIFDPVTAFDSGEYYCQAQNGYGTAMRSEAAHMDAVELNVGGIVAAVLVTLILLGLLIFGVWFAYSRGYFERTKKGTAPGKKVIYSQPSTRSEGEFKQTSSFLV

B1: reovirus attachment protein σ1 head domain plus a short region of the tail (residues 293–455) (domain or fragment)
chain: SPNLRYPIADVSGGIGMSPNYRFRQSMWIGIVSYSGSGLNWRVQVNSDIFIVDDYIHICLPAFDGFSIADGGDLSLNFVTGLLPPLLTGDTEPAFHNDVVTYGAQTVAIGLSSGGAPQYMSKNLWVEQWQDGVLRLRVEGGGSITHSNSKWPAMTVSYPRSFT
B2: chimeric murine JAM-A/Fc fusion protein (Fc fusion)
chain: KGSVYTAQSDVQVPENESIKLTCTYSGFSSPRVEWKFVQGSTTALVCYNSQITAPYADRVTFSSSGITFSSVTRKDNGEYTCMVSEEGGQNYGEVSIHLTVLVPPSKPTISVPSSVTIGNRAVLTCSEHDGSPPSEYSWFKDGISMLTADAKKTRAFMNSSFTIDPKSGDLIFDPVTAFDSGEYYCQAQNGYGTAMRSEAAHMDAVELNVGG

Tests used:
[1] = target: T1, murine JAM-A on L929 (L) cells; assay: single molecule force spectroscopy
[2] = target: T1, murine JAM-A on L929 (L) cells; assay: single molecule force spectroscopy; remark: listed apart in the source

Binder	koff [1] [s⁻¹]	koff [2] [s⁻¹]
B1	0.067 ± 0.041	–
B2	–	0.688 ± 0.349
